One assay deals with T1, Galectin-3 (Homo sapiens, UniProt P17931).
T1 construct: gene LGALS3; CRD domain (114–250), C-terminal 6His-tag
Put plainly: SPR steady-state KD; 1H-15N HSQC NMR titration (slow exchange). It counts as binding.

In assay [1] the target is human Galectin-3 Carbohydrate Recognition Domain (114-250) (human) (UniProt P17931). Nature of the assay: dynamic light scattering; before filtration, after purification and freezing at -80°C; no glycan; 41 µM CRD, 37 µM FL; 5 mM potassium phosphate pH 7.4; 25°C.
In assay [2] the target is full length human Galectin-3 (1-250) (human) (UniProt P17931). Described as above.
Assay [3] has the same target. Put plainly: dynamic light scattering; after centrifugation and filtration; with 140 µM LNnT (CRD up to 1.2 mM LNnT); 41 µM CRD, 37 µM FL; 5 mM potassium phosphate pH 7.4; 25°C.

The source of these data is publication PMC4219786, “Glycan Dependence of Galectin-3 Self-Association Properties” (PLoS ONE, 2014).

T1 sequence (P17931 114-250): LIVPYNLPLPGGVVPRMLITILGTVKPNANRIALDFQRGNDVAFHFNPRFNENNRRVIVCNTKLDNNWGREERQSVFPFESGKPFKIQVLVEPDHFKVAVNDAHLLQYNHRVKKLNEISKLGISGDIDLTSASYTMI

As for `CC(=O)N[C@H]1[C@H](O[C@H]2[C@@H](O)[C@@H](CO)O[C@@H](O[C@H]3[C@H](O)[C@@H](O)C(O)O[C@@H]3CO)[C@@H]2O)O[C@H](CO)[C@@H](O[C@@H]2O[C@H](CO)[C@H](O)[C@H](O)[C@H]2O)[C@@H]1O` (some centres unmarked) [LNnT, lacto-N-neoTetraose], the Kd at Galectin-3 was 140 ± 17 µM.

“human Galectin-3 Carbohydrate Recognition Domain (114-250) (from UniProt P17931 114-250) (domain or fragment)” registered a % mass of size >100 nm in assay [1] of 0.7%.

On to “full length human Galectin-3 (1-250) (from UniProt P17931 1-250) (natural protein)”, for which the % mass of size >100 nm in assay [2] is 67%. In assay [3], this compound came in with a % mass of size <100 nm (46.73 nm), with 140 µM LNnT of 8.7% and a % mass of size >100 nm, with 140 µM LNnT of 91.3%.
